Tests used:
HeLa Kyoto [1] = experiment: solubility in G1/S (NP-40 vs SDS abundance) (log2 ratio); higher = more soluble; conditions: cell cycle stage: G1/S
HeLa Kyoto [2] = experiment: thermal stability score vs G1/S (z-score of summed log2 fold changes over temperatures); higher = more thermally stable than in G1/S
HeLa Kyoto [3] = experiment: melting temperature (median over replicates), in situ; higher = more thermally stable
HeLa Kyoto [4] = experiment: solubility change mitosis vs G1/S (difference of NP-40 vs SDS log2 ratios) (log2 ratio difference); higher = more soluble in mitosis
[5] = cell cycle stage: early G1 (4.5 h after nocodazole release)
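For melting temperature (median over replicates), in situ in this document: HeLa Kyoto cells synchronized by double thymidine or nocodazole block, proteins quantified by TMT10plex mass spectrometry, three independent biological replicates.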
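For solubility change mitosis vs G1/S (difference of NP-40 vs SDS log2 ratios) in this document: synchronized HeLa Kyoto cells (double thymidine block for G1/S, nocodazole release for mitosis), protein amounts in NP-40 versus SDS lysates quantified by mass spectrometry, three biological replicates.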
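For solubility in G1/S (NP-40 vs SDS abundance) in this document: HeLa Kyoto cells arrested at G1/S by double thymidine block, proteins quantified by TMT10plex mass spectrometry in mild NP-40 versus SDS extracts, three biological replicates.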
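For thermal stability score vs G1/S (z-score of summed log2 fold changes over temperatures) in this document: synchronized HeLa Kyoto cells, proteins quantified by TMT10plex mass spectrometry, three biological replicates, mitosis taken 0.5 h after nocodazole release, G1/S directly after double thymidine block.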

MDNMSITNTPTSNDACLSIVHSLMCHRQGGESETFAKRAIESLVKKLKEKKDELDSLITAITTNGAHPSKCVTIQRTLDGRLQVAGRKGFPHVIYARLWRWPDLHKNELKHVKYCQYAFDLKCDSVCVNPYHYERVVSPGIDLSGLTLQSNAPSSMMVKDEYVHDFEGQPSLSTEGHSIQTIQHPPSNRASTETYSTPALLAPSESNATSTANFPNIPVASTSQPASILGGSHSEGLLQIASGPQPGQQQNGFTGQPATYHHNSTTTWTGSRTAPYTPNLPHHQNGHLQHHPPMPPHPGHYWPVHNELAFQPPISNHPAPEYWCSIAYFEMDVQVGETFKVPSSCPIVTVDGYVDPSGGDRFCLGQLSNVHRTEAIERARLHIGKGVQLECKGEGDVWVRCLSDHAVFVQSYYLDREAGRAPGDAVHKIYPSAYIKVFDLRQCHRQMQQQAATAQAAAAAQAAAVAGNIPGPGSVGGIAPAISLSAAAGIGVDDLRRLCILRMSFVKGWGPDYPRQSIKETPCWIEIHLHRALQLLDEVLHTMPIADPQPLD [SMAD4]
solubility in G1/S (log2) (HeLa Kyoto [1]): -0.0138
thermal stability score (HeLa Kyoto [2]; [5]): 0.424
thermal stability score (HeLa Kyoto [2]; cell cycle stage: mitosis): 0.695
melting temperature (HeLa Kyoto [3]; cell cycle stage: G1/S): 51.3 °C
melting temperature (HeLa Kyoto [3]; cell cycle stage: mitosis): 50.9 °C
solubility change mitosis (log2) (HeLa Kyoto [4]): -0.03

MACPALGLEALQPLQPEPPPEPAFSEAQKWIEQVTGRSFGDKDFRTGLENGILLCELLNAIKPGLVKKINRLPTPIAGLDNIILFLRGCKELGLKESQLFDPSDLQDTSNRVTVKSLDYSRKLKNVLVTIYWLGKAANSCTSYSGTTLNLKEFEGLLAQMRKDTDDIESPKRSIRDSGYIDCWDSERSDSLSPPRHGRDDSFDSLDSFGSRSRQTPSPDVVLRGSSDGRGSDSESDLPHRKLPDVKKDDMSARRTSHGEPKSAVPFNQYLPNKSNQTAYVPAPLRKKKAEREEYRKSWSTATSPLGGERPFRYGPRTPVSDDAESTSMFDMRCEEEAAVQPHSRARQEQLQLINNQLREEDDKWQDDLARWKSRRRSVSQDLIKKEEERKKMEKLLAGEDGTSERRKSIKTYREIVQEKERRERELHEAYKNARSQEEAEGILQQYIERFTISEAVLERLEMPKILERSHSTEPNLSSFLNDPNPMKYLRQQSLPPPKFTATVETTIARASVLDTSMSAGSGSPSKTVTPKAVPMLTPKPYSQPKNSQDVLKTFKVDGKVSVNGETVHREEEKERECPTVAPAHSLTKSQMFEGVARVHGSPLELKQDNGSIEINIKKPNSVPQELAATTEKTEPNSQEDKNDGGKSRKGNIELASSEPQHFTTTVTRCSPTVAFVEFPSSPQLKNDVSEEKDQKKPENEMSGKVELVLSQKVVKPKSPEPEATLTFPFLDKMPEANQLHLPNLNSQVDSPSSEKSPVMTPQFKFWAWDPEEERRRQEKWQQEQERLLQERYQKEQDKLKEEWEKAQKEVEEEERRYYEEERKIIEDTVVPFTVSSSSADQLSTSSSMTEGSGTMNKIDLGNCQDEKQDRRWKKSFQGDDSDLLLKTRESDRLEEKGSLTEGALAHSGNPVSKGVHEDHQLDTEAGAPHCGTNPQLAQDPSQNQQTSNPTHSSEDVKPKTLPLDKSINHQIESPSERRKKSPREHFQAGPFSPCSPTPPGQSPNRSISGKKLCSSCGLPLGKGAAMIIETLNLYFHIQCFRCGICKGQLGDAVSGTDVRIRNGLLNCNDCYMRSRSAGQPTTL [LIMCH1]
solubility in G1/S (log2) (HeLa Kyoto [1]): 0.188
thermal stability score (HeLa Kyoto [2]; [5]): 4.62
thermal stability score (HeLa Kyoto [2]; cell cycle stage: mitosis): 6.09
melting temperature (HeLa Kyoto [3]; cell cycle stage: G1/S): 51.2 °C
melting temperature (HeLa Kyoto [3]; cell cycle stage: mitosis): 52 °C
solubility change mitosis (log2) (HeLa Kyoto [4]): -0.237

MMLGTEGGEGFVVKVRGLPWSCSADEVQRFFSDCKIQNGAQGIRFIYTREGRPSGEAFVELESEDEVKLALKKDRETMGHRYVEVFKSNNVEMDWVLKHTGPNSPDTANDGFVRLRGLPFGCSKEEIVQFFSGLEIVPNGITLPVDFQGRSTGEAFVQFASQEIAEKALKKHKERIGHRYIEIFKSSRAEVRTHYDPPRKLMAMQRPGPYDRPGAGRGYNSIGRGAGFERMRRGAYGGGYGGYDDYNGYNDGYGFGSDRFGRDLNYCFSGMSDHRYGDGGSTFQSTTGHCVHMRGLPYRATENDIYNFFSPLNPVRVHIEIGPDGRVTGEADVEFATHEDAVAAMSKDKANMQHRYVELFLNSTAGASGGAYEHRYVELFLNSTAGASGGAYGSQMMGGMGLSNQSSYGGPASQQLSGGYGGGYGGQSSMSGYDQVLQENSSDFQSNIA [HNRNPH1]
solubility in G1/S (log2) (HeLa Kyoto [1]): 0.047
thermal stability score (HeLa Kyoto [2]; [5]): 3.39
thermal stability score (HeLa Kyoto [2]; cell cycle stage: mitosis): 8.7
melting temperature (HeLa Kyoto [3]; cell cycle stage: G1/S): 47.5 °C
melting temperature (HeLa Kyoto [3]; cell cycle stage: mitosis): 48.2 °C
solubility change mitosis (log2) (HeLa Kyoto [4]): -0.00635

MNSNVENLPPHIIRLVYKEVTTLTADPPDGIKVFPNEEDLTDLQVTIEGPEGTPYAGGLFRMKLLLGKDFPASPPKGYFLTKIFHPNVGANGEICVNVLKRDWTAELGIRHVLLTIKCLLIHPNPESALNEEAGRLLLENYEEYAARARLLTEIHGGAGGPSGRAEAGRALASGTEASSTDPGAPGGPGGAEGPMAKKHAGERDKKLAAKKKTDKKRALRRL [UBE2S]
solubility in G1/S (log2) (HeLa Kyoto [1]): 0.347
thermal stability score (HeLa Kyoto [2]; [5]): 1.11
thermal stability score (HeLa Kyoto [2]; cell cycle stage: mitosis): 0.461
melting temperature (HeLa Kyoto [3]; cell cycle stage: G1/S): 51 °C
melting temperature (HeLa Kyoto [3]; cell cycle stage: mitosis): 50.9 °C
solubility change mitosis (log2) (HeLa Kyoto [4]): 0.0837

Source: the supplement of paper PMC5998384
